The text below walks through data of paper PMC7359353, “Rab27a co-ordinates actin-dependent transport by controlling organelle-associated motors and track assembly proteins” (Nature Communications, 2020).

Experiment [1] concerns the target myosin-Va GTD (Homo sapiens) (UniProt Q9Y4I1). As to conditions: cited from earlier work.
Another experiment has as its target Mlph RBD (Homo sapiens) (UniProt Q9BV36). As to conditions: cited from earlier work.
A further experiment has as its target T1, GST-Rab27a-Q78L (UniProt P23640 1-221, Q78L).
T1 construct: Rab27a; rat Rab27a is stated only for the BiFC constructs; also called GTP-locked Rab27a-Q78L; active Rab27a-Q78L; source: E. coli Rosetta, purified (GSH-Sepharose 4B, size-exclusion chromatography)
T1 sequence (looked up): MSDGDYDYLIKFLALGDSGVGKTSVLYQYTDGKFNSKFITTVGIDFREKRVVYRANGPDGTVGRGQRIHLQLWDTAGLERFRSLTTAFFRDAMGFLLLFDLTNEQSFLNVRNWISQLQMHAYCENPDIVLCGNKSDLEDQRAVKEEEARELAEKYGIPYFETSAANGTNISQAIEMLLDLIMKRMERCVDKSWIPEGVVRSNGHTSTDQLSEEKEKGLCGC
Description: pull-down; quantitative GST pull-down: increasing concentrations of GST-Rab27a-Q78L on beads, HEK293 lysate (GFP-SPIRE1-MSFH ~50 nM); GFP depletion from the supernatant measured by fluorospectrometry at 20 °C; fraction bound fitted for Kd.

Experiment [2] addresses myosin-Va GTD (Homo sapiens) (UniProt Q9Y4I1). As to conditions: cited from earlier work. This is another data set of the same source.
Another experiment concerns the target T2, vYCE-Rab27a Q78L (rat, UniProt P23640 1-221, Q78L).
T2 construct: rat Rab27a; also called Q78L mutant; source: HEK293a, transfected, in living cells
T2 sequence (looked up): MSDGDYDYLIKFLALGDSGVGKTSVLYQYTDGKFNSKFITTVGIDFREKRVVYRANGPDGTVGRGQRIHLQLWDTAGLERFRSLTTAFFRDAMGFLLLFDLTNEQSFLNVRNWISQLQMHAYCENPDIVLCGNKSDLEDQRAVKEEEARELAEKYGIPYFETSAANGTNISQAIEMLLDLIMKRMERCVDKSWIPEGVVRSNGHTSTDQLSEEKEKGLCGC
Description: split reporter (BiFC, NanoBiT); BiFC in living HEK293a cells: vYNE-SPIRE1/2 and vYCE-Rab27a co-expressed with mCherry; vYFP signal normalised to mCherry, 48 h after transfection. As to conditions: partners not purified.

The target of the next experiment is T3, vYCE-Rab27a wild type (rat, UniProt P23640 1-221).
T3 construct: rat Rab27a; also called wild-type Rab27a; WT; source: HEK293a, transfected, in living cells
T3 sequence (looked up): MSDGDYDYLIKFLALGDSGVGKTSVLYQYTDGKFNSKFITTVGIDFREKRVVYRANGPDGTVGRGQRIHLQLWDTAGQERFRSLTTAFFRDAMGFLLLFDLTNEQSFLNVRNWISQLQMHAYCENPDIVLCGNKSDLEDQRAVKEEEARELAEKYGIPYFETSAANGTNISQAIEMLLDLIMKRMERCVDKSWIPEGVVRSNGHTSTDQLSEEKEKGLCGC
The description is as above. As to conditions: partners not purified.

Where two headings read alike, the source gives them in different places.

Chain of myosin-Va GTD (Homo sapiens) (Q9Y4I1 1448-1855): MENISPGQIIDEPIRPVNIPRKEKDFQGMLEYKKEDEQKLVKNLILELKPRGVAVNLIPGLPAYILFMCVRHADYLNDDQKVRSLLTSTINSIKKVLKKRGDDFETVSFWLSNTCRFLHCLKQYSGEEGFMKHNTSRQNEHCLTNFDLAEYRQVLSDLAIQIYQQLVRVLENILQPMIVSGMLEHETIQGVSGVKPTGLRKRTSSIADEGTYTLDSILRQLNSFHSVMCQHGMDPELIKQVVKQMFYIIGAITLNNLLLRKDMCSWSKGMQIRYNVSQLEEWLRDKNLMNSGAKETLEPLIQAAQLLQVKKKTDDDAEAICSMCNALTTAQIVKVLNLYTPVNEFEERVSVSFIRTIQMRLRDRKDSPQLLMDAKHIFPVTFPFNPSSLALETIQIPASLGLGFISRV
Chain of Mlph RBD (Homo sapiens) (Q9BV36 4-124): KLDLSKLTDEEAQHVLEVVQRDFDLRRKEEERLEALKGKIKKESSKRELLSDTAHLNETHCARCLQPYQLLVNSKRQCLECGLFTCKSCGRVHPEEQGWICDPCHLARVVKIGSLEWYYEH

With Mlph (from UniProt Q9BV36), the Kd in experiment [1] was 500 nM.
On to Rab27a (from UniProt P51159), for which the Kd with Mlph RBD (Homo sapiens) was 112 nM.
In the experiment with GST-Rab27a-Q78L, GFP-Mlph-RBD (domain or fragment) displayed a Kd of 143 nM.
On to SPIRE2 (from UniProt Q8WWL2), for which the Kd in experiment [2] was 900 nM.

B1: vYNE-SPIRE1 (natural protein, human, UniProt Q08AE8-2 1-742, looked up)
chain: MAQAAGPAGGGEPRTEAVGGEGPREPGAAGGAAGGSRDALSLEEILRLYNQPINEEQAWAVCYQCCGSLRAAARRRQPRHRVRSAAQIRVWRDGAVTLAPAADDAGEPPPVAGKLGYSQCMETEVIESLGIIIYKALDYGLKENEERELSPPLEQLIDHMANTVEADGSNDEGYEAAEEGLGDEDEKRKISAIRSYRDVMKLCAAHLPTESDAPNHYQAVCRALFAETMELHTFLTKIKSAKENLKKIQEMEKSDESSTDLEELKNADWARFWVQVMRDLRNGVKLKKVQERQYNPLPIEYQLTPYEMLMDDIRCKRYTLRKVMVNGDIPPRLKKSAHEIILDFIRSRPPLNPVSARKLKPTPPRPRSLHERILEEIKAERKLRPVSPEEIRRSRLDVTTPESTKNLVESSMVNGGLTSQTKENGLSTSQQVPAQRKKLLRAPTLAELDSSESEEETLHKSTSSSSVSPSFPEEPVLEAVSTRKKPPKFLPISSTPQPERRQPPQRRHSIEKETPTNVRQFLPPSRQSSRSLEEFCYPVECLALTVEEVMHIRQVLVKAELEKYQQYKDIYTALKKGKLCFCCRTRRFSFFTWSYTCQFCKRPVCSQCCKKMRLPSKPYSTLPIFSLGPSALQRGESSMRSEKPSTAHHRPLRSIARFSSKSKSMDKSDEELQFPKELMEDWSTMEVCVDCKKFISEIISSSRRSLVLANKRARLKRKTQSFYMSSPGPSEYCPSERTISEI
notes: human SPIRE1, cDNA NM_020148.2; also called SPIRE1 (BiFC); source: HEK293a, transfected, in living cells; not shown: enhanced Venus YFP N-terminus fragment (amino acids 1-173)
Regarding B1, the “mean normalised BiFC (% max)” value worked out at 75.2 % max with vYCE-Rab27a Q78L and 89.3 % max in the experiment with vYCE-Rab27a wild type.

B2: GFP-SPIRE1-MSFH (domain or fragment)
chain: PEEIRRSRLDVTTPESTKNLVESSMVNGGLTSQTKENGLSTSQQVPAQRKKLLRAPTLAELDSSESEEETLHKSTSSSSVSPSFPEEPVLEAVSTRKKPPKFLPISSTPQPERRQPPQRRHSIEKETPTNVRQFLPPSRQSSRSLEEFCYPVECLALTVEEVMHIRQVLVKAELEKYQQYKDIYTALKKGKLCFCCRTRRFSFFTWSYTCQFCKRPVCSQCCKKMRLPSKPYSTLPIFSLGPSALQRGESSMRSEKPSTAHHRPLRSIARFSSKSKSMDKSDEELQFPKELMEDWSTMEVCVDCKKFISEIISSSRRSLVLANKRARLKRKTQSFYMSSPGPSEYCPSERTISEI
modifications: Limits are not in the text (Fig. 6a / Supplementary Table 9). By convention, the start is just after the last WH2 (ends at 386) and the end is the C-terminus. NM_020148.2 is taken as the 742-aa …
Molecule B2 registered a Kd in the experiment with GST-Rab27a-Q78L (one partner purified) of 707 ± 155 nM.

B3: vYNE-SPIRE2 (natural protein, human, UniProt Q8WWL2 1-714, looked up)
chain: MARAGSCGGAAAGAGRPEPWELSLEEVLKAYEQPLNEEQAWAVCFQGCRGLRGSPGRRLRDTGDLLLRGDGSVGAREPEAAEPATMVVPLASSEAQTVQSLGFAIYRALDWGLDESEERELSPQLERLIDLMANNDSEDSGCGAADEGYGGPEEEEEAEGVPRSVRTFAQAMRLCAARLTDPRGAQAHYQAVCRALFVETLELRAFLARVREAKEMLQKLREDEPHLETPRAELDSLGHTDWARLWVQLMRELRRGVKLKKVQEQEFNPLPTEFQLTPFEMLMQDIRARNYKLRKVMVDGDIPPRVKKDAHELILDFIRSRPPLKQVSERRLRPLPPKQRSLHEKILEEIKQERRLRPVRGEGWAARGFGSLPCILNACSGDAKSTSCINLSVTDAGGSAQRPRPRVLLKAPTLAEMEEMNTSEEEESPCGEVTLKRDRSFSEHDLAQLRSEVASGLQSATHPPGGTEPPRPRAGSAHVWRPGSRDQGTCPASVSDPSHPLLSNRGSSGDRPEASMTPDAKHLWLEFSHPVESLALTVEEVMDVRRVLVKAEMEKFLQNKELFSSLKKGKICCCCRAKFPLFSWPPSCLFCKRAVCTSCSIKMKMPSKKFGHIPVYTLGFESPQRVSAAKTAPIQRRDIFQSLQGPQWQSVEEAFPHIYSHGCVLKDVCSECTSFVADVVRSSRKSVDVLNTTPRRSRQTQSLYIPNTRTLDFK
notes: human SPIRE2, cDNA AJ422077; also called SPIRE2 (BiFC); source: HEK293a, transfected, in living cells; not shown: enhanced Venus YFP N-terminus fragment (amino acids 1-173)
Regarding B3, the “mean normalised BiFC (% max)” value was 85.2 % max in the experiment with vYCE-Rab27a Q78L and 85.4 % max with vYCE-Rab27a wild type.

By Kd is commonly meant a measure of binding affinity in units of concentration.
